# Test results taken from patent publication US20220064275A1 (SCHOLAR ROCK, published 2022).
# Like-named read-outs stand apart in the source and are kept apart here.
# B1: Ab6 (antibody, human IgG4 S228P, kappa, V domains shown)
# VH: EVQLVESGGGLVQPGGSLRLSCTASGFTFSSFSMDWVRQAPGKGLEWVSYISPSADTIYYADSVKGRFTISRDNAKNTLYLQMNSLRAEDTAVYYCARGVLDYGDMLMPWGQGTLVTVSS
# VL: DIQMTQSPSSLSASVGDRVTITCQASQDITNYLNWYQQKPGKAPKLLIYDASNLETGVPSRFSGSGSGTDFTFTISSLQPEDIATYYCQQADNHPPWTFGGGTKVEIKR
# Tests used:
# [1] = molecular target: T1, human GARP-proTGFβ1 complex (human, UniProt Q14392 20-627; P01137 30-390); test: MSD-SET solution equilibrium titration; Ab6 titrated against biotinylated hGARP-proTGFβ1, readout % free antigen
# T1 construct: also called hGARP-proTGFβ1; hGARP
# T1 sequence (Q14392 20-627, chain 1 of 2): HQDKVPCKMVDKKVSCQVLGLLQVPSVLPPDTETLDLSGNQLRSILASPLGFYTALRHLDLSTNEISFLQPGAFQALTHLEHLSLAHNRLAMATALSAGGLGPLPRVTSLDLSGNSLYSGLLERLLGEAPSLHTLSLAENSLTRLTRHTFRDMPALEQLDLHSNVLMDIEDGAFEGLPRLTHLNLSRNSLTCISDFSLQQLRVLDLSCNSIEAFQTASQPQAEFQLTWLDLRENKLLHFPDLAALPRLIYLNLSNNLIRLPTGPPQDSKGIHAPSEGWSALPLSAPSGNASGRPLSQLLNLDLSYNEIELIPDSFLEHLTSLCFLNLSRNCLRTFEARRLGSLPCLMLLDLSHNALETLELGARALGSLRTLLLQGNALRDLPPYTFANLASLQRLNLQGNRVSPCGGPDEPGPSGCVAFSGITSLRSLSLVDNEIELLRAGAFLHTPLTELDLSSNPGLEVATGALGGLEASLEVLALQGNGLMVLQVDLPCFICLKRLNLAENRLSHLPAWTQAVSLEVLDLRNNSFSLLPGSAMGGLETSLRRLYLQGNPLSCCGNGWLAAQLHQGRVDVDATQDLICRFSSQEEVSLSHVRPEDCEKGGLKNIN
# T1 sequence (P01137 30-390, chain 2 of 2): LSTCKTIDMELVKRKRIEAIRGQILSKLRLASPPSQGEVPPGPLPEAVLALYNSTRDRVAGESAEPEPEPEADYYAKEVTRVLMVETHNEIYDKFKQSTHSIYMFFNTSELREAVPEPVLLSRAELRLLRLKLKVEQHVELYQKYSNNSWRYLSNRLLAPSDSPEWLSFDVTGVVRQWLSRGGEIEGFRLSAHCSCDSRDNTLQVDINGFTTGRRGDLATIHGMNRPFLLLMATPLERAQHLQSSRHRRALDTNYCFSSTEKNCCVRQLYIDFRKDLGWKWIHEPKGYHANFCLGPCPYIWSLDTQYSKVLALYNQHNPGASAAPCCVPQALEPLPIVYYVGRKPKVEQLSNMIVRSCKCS
# Method: (§1) MSD-SET assays were performed to measure affinities of the antibodies at equilibrium. Briefly, each test antibody was diluted 3-5 fold and samples were mixed with biotinylated antigen in a 48-well dish. The SET samples were equilibrated for 20-24 hours at room temperature. Meanwhile, a capture plate was coated with IgG (20 nM) and incubated overnight at 4° C. or 30 minutes at room temperature, followed by a blocking step with 5% BSA. After the capture plate was washed three times, SET samples were added and incubated for 150 seconds. The plate was washed once to remove unbound complexes. 250 ng/ml SA-Sulfotag was added then washed 3 times. 2× Read Buffer was added, and signals from the labeled bound complexes were read with the use of QuickPlex™ SQ 120 instrument.
# (§2) As an example, MSD standard plates (MSD) were coated with a 20 nM solution of monoclonal antibody in PBS for 30 min at room temperature or overnight at 4° C. […] After 20-24 hours of equilibration, the antibody-coated plate was blocked with Blocking Buffer A (MSD) for 30 minutes at room temperature and washed with wash buffer (PBS, 0.1% BSA, 0.05% Tween-20) before adding the equilibrated antibody-antigen complexes to the plate for exactly 2.5 minutes. […] After washing with wash buffer, plates were read in MSD read buffer (MSD) using the MESO QuickPlex SQ 120 (MSD). […]
# [2] = molecular target: T2, human LTBP1-proTGFβ1 complex (human, UniProt Q14766 873-1507); test: MSD-SET solution equilibrium titration; Ab6 titrated against biotinylated hLTBP1-proTGFβ1, readout % free antigen
# T2 construct: range 873-1507; biotinylated in Octet and MSD-SET; also called hLTBP1-proTGFβ1; hLTBP1
# T2 sequence (Q14766 873-1507 limits assumed, chain 1 of 2): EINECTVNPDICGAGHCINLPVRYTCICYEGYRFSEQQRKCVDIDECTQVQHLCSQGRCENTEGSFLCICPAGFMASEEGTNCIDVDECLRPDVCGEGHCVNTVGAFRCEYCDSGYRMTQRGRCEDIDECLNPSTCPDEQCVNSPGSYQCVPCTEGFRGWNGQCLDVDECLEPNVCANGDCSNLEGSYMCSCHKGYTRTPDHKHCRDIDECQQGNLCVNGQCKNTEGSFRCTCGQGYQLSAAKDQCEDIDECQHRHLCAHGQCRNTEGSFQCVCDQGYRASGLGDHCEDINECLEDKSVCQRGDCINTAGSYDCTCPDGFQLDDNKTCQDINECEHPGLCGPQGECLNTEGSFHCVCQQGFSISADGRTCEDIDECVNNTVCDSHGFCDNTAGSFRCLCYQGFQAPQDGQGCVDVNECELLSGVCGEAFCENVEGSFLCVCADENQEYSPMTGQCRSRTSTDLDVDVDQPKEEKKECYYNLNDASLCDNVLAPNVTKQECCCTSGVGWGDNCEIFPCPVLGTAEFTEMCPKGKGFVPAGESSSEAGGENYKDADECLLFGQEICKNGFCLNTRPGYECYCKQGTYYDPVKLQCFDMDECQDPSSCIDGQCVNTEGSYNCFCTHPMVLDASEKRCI
# T2 sequence (chain, as listed by the source limits assumed, chain 2 of 2): as the sequence (P01137 30-390, chain 2 of 2) above
# Method: as §1, §2
# [3] = molecular target: hLTBP3-proTGFβ1 complex made by transfected cells (cell-based potency assay) (human, UniProt Q9NS15 44-1303; P01137 30-390); test: cell-based or functional assay
# [4] = molecular target: hLTBP1-proTGFβ1 complex made by transfected cells (cell-based potency assay) (human, UniProt Q14766 347-1721; P01137 30-390); test: cell-based or functional assay
# [5] = molecular target: hLRRC33-proTGFβ1 complex on cells (human, UniProt Q86YC3 19-692; P01137 30-390); test: cell-based or functional assay
# [6] = molecular target: hGARP-proTGFβ1 complex on cells (human, UniProt Q14392 20-662; P01137 30-390); test: cell-based or functional assay
# [7] = molecular target: T3, murine GARP-proTGFβ1 complex (mouse, UniProt G3XA59 18-628; P04202 30-390); test: MSD-SET, solution equilibrium titration
# T3 construct: Soluble murine complex; also called mGARP-proTGFβ1
# T3 sequence (G3XA59 18-628, chain 1 of 2): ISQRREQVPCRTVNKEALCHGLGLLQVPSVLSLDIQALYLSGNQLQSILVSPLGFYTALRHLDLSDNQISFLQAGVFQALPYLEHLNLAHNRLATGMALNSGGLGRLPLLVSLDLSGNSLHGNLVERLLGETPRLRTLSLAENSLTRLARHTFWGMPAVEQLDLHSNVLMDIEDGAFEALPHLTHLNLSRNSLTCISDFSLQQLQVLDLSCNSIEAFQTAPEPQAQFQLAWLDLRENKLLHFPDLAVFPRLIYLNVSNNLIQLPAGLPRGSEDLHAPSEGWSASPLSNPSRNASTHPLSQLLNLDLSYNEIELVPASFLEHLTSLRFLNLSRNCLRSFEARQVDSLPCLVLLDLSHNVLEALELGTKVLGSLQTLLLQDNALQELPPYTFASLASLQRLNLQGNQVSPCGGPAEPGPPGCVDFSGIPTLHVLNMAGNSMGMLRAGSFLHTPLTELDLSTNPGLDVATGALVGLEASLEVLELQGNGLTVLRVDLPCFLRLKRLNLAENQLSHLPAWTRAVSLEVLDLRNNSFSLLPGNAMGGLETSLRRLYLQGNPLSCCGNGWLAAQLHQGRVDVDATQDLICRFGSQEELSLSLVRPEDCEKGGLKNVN
# T3 sequence (P04202 30-390, chain 2 of 2): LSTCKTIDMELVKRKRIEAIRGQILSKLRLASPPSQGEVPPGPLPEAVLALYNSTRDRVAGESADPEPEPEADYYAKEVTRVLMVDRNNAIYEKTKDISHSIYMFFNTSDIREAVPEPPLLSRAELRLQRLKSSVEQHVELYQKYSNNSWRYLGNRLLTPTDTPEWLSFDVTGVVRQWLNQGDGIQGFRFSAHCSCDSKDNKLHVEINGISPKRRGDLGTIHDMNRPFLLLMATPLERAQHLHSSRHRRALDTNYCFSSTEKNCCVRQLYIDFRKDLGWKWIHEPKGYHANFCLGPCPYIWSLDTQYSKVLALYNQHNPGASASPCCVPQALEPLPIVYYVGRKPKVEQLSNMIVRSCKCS
# Method: as §1
# (§3) As an example, MSD standard plates (MSD) were coated with a 20 nM solution of monoclonal antibody in PBS for 30 min at room temperature or overnight at 4° C. […] After 20-24 hours of equilibration, the antibody-coated plate was blocked with Blocking Buffer A (MSD) for 30 minutes at room temperature and washed with wash buffer (PBS, 0.1% BSA, 0.05% Tween-20) before adding the equilibrated antibody-antigen complexes to the plate for exactly 2.5 minutes. The plate was washed again with wash buffer before adding 250 ng/ml SULFO-TAG-labeled streptavidin secondary reagent (MSD) in PBS with 0.1% BSA. After washing with wash buffer, plates were read in MSD read buffer (MSD) using the MESO QuickPlex SQ 120 (MSD). The binding data were processed by nonlinear curve fitting in Prism 7 software (Graphpad) to calculate equilibrium binding KD values.
# [8] = molecular target: T4, human LRRC33-proTGFβ1 complex (human, UniProt Q86YC3 19-650; P01137 30-390); test: MSD-SET, solution equilibrium titration
# T4 construct: also called hLRRC33-proTGFβ1; hLRRC33
# T4 sequence (Q86YC3 other isoform, or with tags, fused parts or gaps limits assumed, chain 1 of 2): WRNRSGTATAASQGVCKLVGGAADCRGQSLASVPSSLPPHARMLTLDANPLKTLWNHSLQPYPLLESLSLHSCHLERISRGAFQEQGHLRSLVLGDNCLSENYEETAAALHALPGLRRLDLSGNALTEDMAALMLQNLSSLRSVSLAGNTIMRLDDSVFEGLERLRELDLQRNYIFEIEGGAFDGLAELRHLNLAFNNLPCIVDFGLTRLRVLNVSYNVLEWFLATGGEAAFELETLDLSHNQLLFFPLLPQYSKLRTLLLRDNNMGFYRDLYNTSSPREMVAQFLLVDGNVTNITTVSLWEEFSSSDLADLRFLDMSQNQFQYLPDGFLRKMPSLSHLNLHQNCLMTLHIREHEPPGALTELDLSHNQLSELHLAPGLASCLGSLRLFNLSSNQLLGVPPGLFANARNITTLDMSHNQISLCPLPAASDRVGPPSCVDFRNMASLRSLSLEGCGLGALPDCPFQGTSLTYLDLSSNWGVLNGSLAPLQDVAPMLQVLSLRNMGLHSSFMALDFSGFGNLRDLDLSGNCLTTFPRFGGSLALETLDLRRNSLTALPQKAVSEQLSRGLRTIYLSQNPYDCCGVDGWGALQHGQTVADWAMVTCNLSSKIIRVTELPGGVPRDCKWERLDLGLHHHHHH
# T4 sequence (P01137 30-390 limits assumed, chain 2 of 2): as the sequence (P01137 30-390, chain 2 of 2) above
# Method: as §1, §3
# [9] = molecular target: T5, murine LTBP3-proTGFβ1 complex (mouse, UniProt Q61810 41-1245; P04202 30-390, limits assumed); test: MSD-SET, solution equilibrium titration
# T5 construct: also called mLTBP3-proTGFβ1
# T5 sequence (Q61810 other isoform, or with tags, fused parts or gaps limits assumed, chain 1 of 2): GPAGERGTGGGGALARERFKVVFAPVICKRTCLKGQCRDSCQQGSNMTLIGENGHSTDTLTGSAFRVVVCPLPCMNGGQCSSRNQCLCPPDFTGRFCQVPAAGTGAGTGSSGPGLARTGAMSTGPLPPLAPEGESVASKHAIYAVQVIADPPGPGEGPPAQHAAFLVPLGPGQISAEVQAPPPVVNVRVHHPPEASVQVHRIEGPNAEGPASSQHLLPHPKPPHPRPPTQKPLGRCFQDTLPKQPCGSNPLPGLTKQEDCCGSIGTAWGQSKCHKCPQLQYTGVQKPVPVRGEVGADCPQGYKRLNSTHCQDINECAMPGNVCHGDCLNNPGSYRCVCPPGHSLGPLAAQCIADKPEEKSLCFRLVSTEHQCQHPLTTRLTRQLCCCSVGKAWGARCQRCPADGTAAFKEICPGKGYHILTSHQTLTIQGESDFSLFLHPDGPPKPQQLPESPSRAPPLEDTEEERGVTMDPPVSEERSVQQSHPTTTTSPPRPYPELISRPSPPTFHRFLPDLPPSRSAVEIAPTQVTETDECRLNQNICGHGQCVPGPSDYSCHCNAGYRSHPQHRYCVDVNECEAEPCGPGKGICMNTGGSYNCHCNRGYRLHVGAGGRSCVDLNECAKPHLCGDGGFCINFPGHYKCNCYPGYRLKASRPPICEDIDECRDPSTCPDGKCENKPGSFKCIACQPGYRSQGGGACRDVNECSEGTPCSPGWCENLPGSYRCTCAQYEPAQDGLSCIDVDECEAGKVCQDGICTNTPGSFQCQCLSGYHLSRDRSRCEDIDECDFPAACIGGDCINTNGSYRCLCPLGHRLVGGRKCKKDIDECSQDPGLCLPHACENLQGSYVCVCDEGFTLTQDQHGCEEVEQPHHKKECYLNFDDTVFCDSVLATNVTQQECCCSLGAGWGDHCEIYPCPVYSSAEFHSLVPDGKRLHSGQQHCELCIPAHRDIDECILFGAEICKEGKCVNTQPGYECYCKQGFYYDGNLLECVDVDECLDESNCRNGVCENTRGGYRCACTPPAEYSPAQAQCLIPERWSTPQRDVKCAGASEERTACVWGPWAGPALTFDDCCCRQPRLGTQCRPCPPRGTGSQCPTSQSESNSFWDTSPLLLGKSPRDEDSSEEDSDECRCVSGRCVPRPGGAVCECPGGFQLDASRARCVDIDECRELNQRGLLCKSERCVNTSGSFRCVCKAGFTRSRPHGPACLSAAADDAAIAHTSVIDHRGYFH
# T5 sequence (P04202 30-390 limits assumed, chain 2 of 2): as the sequence (P04202 30-390, chain 2 of 2) above
# Method: as §1, §3
# [10] = molecular target: T1, human GARP-proTGFβ1 complex; test: MSD-SET, solution equilibrium titration
# Method: as §1, §3
# [11] = molecular target: T6, murine LRRC33-proTGFβ1 complex (mouse, UniProt Q8BMT4 20-651, limits assumed); test: MSD-SET, solution equilibrium titration
# T6 construct: also called mLRRC33-proTGFβ1
# Method: as §1, §3
# [12] = molecular target: T2, human LTBP1-proTGFβ1 complex; test: MSD-SET, solution equilibrium titration
# Method: as §1, §3
# [13] = molecular target: T7, human LTBP3-proTGFβ1 complex (human, UniProt Q9NS15 866-1039); test: MSD-SET, solution equilibrium titration
# T7 construct: range 866-1039; also called hLTBP3-proTGFβ1; hLTBP3
# T7 sequence (Q9NS15 866-1039 limits assumed, chain 1 of 2): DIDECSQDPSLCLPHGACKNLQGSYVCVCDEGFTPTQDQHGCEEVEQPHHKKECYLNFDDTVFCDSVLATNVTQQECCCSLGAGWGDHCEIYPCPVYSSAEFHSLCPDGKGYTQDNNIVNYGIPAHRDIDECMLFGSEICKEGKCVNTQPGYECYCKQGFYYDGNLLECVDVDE
# T7 sequence (chain, as listed by the source limits assumed, chain 2 of 2): as the sequence (P01137 30-390, chain 2 of 2) above
# Method: as §1, §3
# [14] = molecular target: T8, murine LTBP1-proTGFβ1 complex (mouse, UniProt Q8CG19 339-1712; P04202 30-390, limits assumed); test: MSD-SET, solution equilibrium titration
# T8 construct: also called mLTBP1-proTGFβ1
# Method: as §1, §3
# [15] = molecular target: T4, human LRRC33-proTGFβ1 complex; test: MSD-SET, solution equilibrium titration; remark: listed apart in the source
# Method: as §1, §3
# [16] = molecular target: T1, human GARP-proTGFβ1 complex; test: MSD-SET, solution equilibrium titration; remark: listed apart in the source
# Method: as §1, §3
# [17] = molecular target: T2, human LTBP1-proTGFβ1 complex; test: MSD-SET, solution equilibrium titration; remark: listed apart in the source
# Method: as §1, §3
# [18] = molecular target: T4, human LRRC33-proTGFβ1 complex; test: MSD-SET, solution equilibrium titration; remark: listed apart in the source
# Method: as §1
# [19] = molecular target: T1, human GARP-proTGFβ1 complex; test: MSD-SET, solution equilibrium titration; remark: listed apart in the source
# Method: as §1
# [20] = molecular target: T2, human LTBP1-proTGFβ1 complex; test: MSD-SET, solution equilibrium titration; remark: listed apart in the source
# Method: as §1
# [21] = molecular target: T7, human LTBP3-proTGFβ1 complex; test: MSD-SET, solution equilibrium titration; remark: listed apart in the source
# Method: as §1
# [22] = molecular target: T7, human LTBP3-proTGFβ1 complex; test: MSD-SET solution equilibrium titration; Ab6 titrated against biotinylated hLTBP3-proTGFβ1, readout % free antigen
# Method: as §1, §2
binder,measurement,setting,value
B1,IC50 (read off the curve),[1],~0.03 nM
same,IC50 (read off the curve),[2],~0.02 nM
same,"IC50, reporter cell assay of TGFβ1 activation",[3],0.821 nM
same,"IC50, reporter cell assay of TGFβ1 activation",[4],2.74 nM
same,"IC50, reporter cell assay of TGFβ1 activation",[5],0.495 nM
same,"IC50, reporter cell assay of TGFβ1 activation",[6],0.324 nM
same,Kd,[7],0.021 nM
same,Kd,[8],0.063 nM
same,Kd,[9],0.028 nM
same,Kd,[10],0.027 nM
same,Kd,[11],0.048 nM
same,Kd,[12],0.018 nM
same,Kd,[13],0.029 nM
same,Kd,[14],0.024 nM
same,Kd,[15],0.063 nM
same,Kd,[16],0.027 nM
same,Kd,[17],0.018 nM
same,Kd,[18],0.063 nM
same,Kd,[19],0.027 nM
same,Kd,[20],0.018 nM
same,Kd,[21],0.029 nM
same,IC50 (read off the curve),[22],~0.03 nM
